The data set concerns the molecule itself. Briefly: native gel or EMSA; samples at the end of ThT assays (Aβ1-42 3 µM with PAI-2 pre-treated with 0-200 µM NaOCl, PBS, 28 °C) centrifuged at 24,000 x g, supernatant on 8% native PAGE, Western blot with anti-Aβ (W0-2) or anti-PAI-2. Background: Mobility shift assays separate free from complexed probe on a gel.

B1: Hypochlorite-treated glycosylated PAI-2 (PAI-2^G pre-treated with NaOCl) (natural protein, human, UniProt P05120 1-415, looked up)
chain: MEDLCVANTLFALNLFKHLAKASPTQNLFLSPWSISSTMAMVYMGSRGSTEDQMAKVLQFNEVGANAVTPMTPENFTSCGFMQQIQKGSYPDAILQAQAADKIHSSFRSLSSAINASTGNYLLESVNKLFGEKSASFREEYIRLCQKYYSSEPQAVDFLECAEEARKKINSWVKTQTKGKIPNLLPEGSVDGDTRMVLVNAVYFKGKWKTPFEKKLNGLYPFRVNSAQRTPVQMMYLREKLNIGYIEDLKAQILELPYAGDVSMFLLLPDEIADVSTGLELLESEITYDKLNKWTSKDKMAEDEVEVYIPQFKLEEHYELRSILRSMGMEDAFNKGRANFSGMSERNDLFLSEVFHQAMVDVNEEGTEAAAGTGGVMTGRTGHGGPQFVADHPFLFLIMHKITNCILFFGRFSSP
modifications: glycosylated; hypochlorite-modified: dityrosine cross-linkages, reactive thiols (cysteines) reduced by 62 ± 27% at 200 µM NaOCl; positions not given
notes: m1 after treatment with NaOCl; the dose differs between experiments (0-200 µM); also called hypochlorite-treated PAI-2^G; PAI-2^G OX200; source: bought: Biotech Australia (produced in CHO cells); incubated 2 h at 24 °C with up to 200 µM NaOCl, dialysed
Regarding B1, the binding result is listed as “binds”.

B2: Hypochlorite-treated non-glycosylated PAI-2 (PAI-2^NG pre-treated with NaOCl) (natural protein, human, UniProt P05120 1-415, looked up)
chain: B1 chain
modifications: hypochlorite-modified: dityrosine cross-linkages, reactive thiols (cysteines) reduced by 75 ± 18% at 200 µM NaOCl; positions not given
notes: m2 after treatment with NaOCl; the dose differs between experiments (0-200 µM); also called hypochlorite-treated PAI-2^NG; PAI-2^NG OX200; source: bought: Biotech Australia (produced in E. coli); incubated 2 h at 24 °C with up to 200 µM NaOCl, dialysed
For B2, the binding result is “binds”.
